Assay results taken from paper PMC7861488.
Read-outs that look alike come from different tables or passages of the source.

Columns and labels:
Assay in all cases: graphene FET
TNF-alpha [1] = molecular target: T1, TNF-alpha (UniProt P01375 77-233)
TNF-alpha [2] = molecular target: T1, TNF-alpha; remark: listed apart in the source
TNF-alpha [3] = molecular target: T1, TNF-alpha; remark: listed apart in the source
TNF-alpha [4] = molecular target: T1, TNF-alpha; remark: listed apart in the source
TNF-alpha [5] = molecular target: T1, TNF-alpha; remark: listed apart in the source
TNF-alpha [6] = molecular target: T1, TNF-alpha; remark: listed apart in the source
TNF-alpha [7] = molecular target: T1, TNF-alpha; remark: listed apart in the source
TNF-alpha [8] = molecular target: T1, TNF-alpha; remark: listed apart in the source
TNF-alpha [9] = molecular target: T1, TNF-alpha; remark: listed apart in the source

T1 sequence (P01375 77-233): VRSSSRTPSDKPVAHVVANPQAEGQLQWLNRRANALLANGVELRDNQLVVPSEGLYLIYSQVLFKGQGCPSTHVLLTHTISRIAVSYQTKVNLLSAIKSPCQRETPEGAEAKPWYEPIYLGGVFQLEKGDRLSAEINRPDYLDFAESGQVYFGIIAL

## TGGTGGATGGCGCAGTCGGCGACAA (ssDNA, 5'-NH2 (coupled to PASE on graphene)) [VR11]
TNF-alpha [1]
  Kd: 15.1 nM
TNF-alpha [2]
  Kd: 15.1 nM
TNF-alpha [3]
  Kd: 14.3 nM
TNF-alpha [4]
  Kd: 14.7 nM
TNF-alpha [5]
  Kd: 15 nM
TNF-alpha [6]
  Kd: 14.2 nM
TNF-alpha [7]
  Kd: 14.2 nM
TNF-alpha [8]
  Kd: 15.5 nM
TNF-alpha [9]
  Kd: 15.6 nM
